Test results taken from the supplement of paper PMC10126150.
± gives the standard deviation of the averaged measurements.

Test system: ATP
Test: switch fluorescence ratio, 500 uM ATP over buffer (Cy3 cluster intensity, sum of 5 cycles each) (fold (ratio)); higher = stronger signal-on switching upon ATP binding; sequences stand for … in TCGTCGGCAGCGTCAGATGTGTATAAGAGACAGTTTTTTTTTTTTTTTTTTTTTTTTT…TC
Details: aptamer strand: ATP DNA aptamer (quencher-CACCTGGGGGAGTATTGCGGAGGAAGG + anchor), 100 nM annealed; ATP concentration: 500 uM
Procedure, shortened: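 Switching-strand clusters labelled with Cy3 on a modified Illumina MiSeq flow-cell were annealed to 100 nM quencher-labelled ATP aptamer, imaged in selection buffer, and re-imaged after 15 min with 500 uM ATP at 22 °C. This was done over five cycles with NaOH stripping and re-annealing in between. The fluorescence ratio is summed target-cycle over summed buffer-cycle Cy3 intensity per cluster, averaged per switch-domain sequence, excluding clusters outside 100-1000 RFU.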
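Further: ATP exposure 15 min at 22 °C before imaging.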

## GGGTATCGTT
  switch fluorescence ratio: 0.965 ± 0.027

## GGGTATGCCC
  switch fluorescence ratio: 0.9949 ± 0.0027

## GGGTATGCGT
  switch fluorescence ratio: 0.975 ± 0.026

## GGGTATGTTT
  switch fluorescence ratio: 0.981 ± 0.03

## GGGTATTACG
  switch fluorescence ratio: 0.975 ± 0.023

## GGGTATTTAG
  switch fluorescence ratio: 0.983 ± 0.033

## GGGTCAAGGG
  switch fluorescence ratio: 0.979 ± 0.019

## GGGTCAGGAT
  switch fluorescence ratio: 0.968 ± 0.019

## GGGTCAGGGA
  switch fluorescence ratio: 1.01 ± 0.065

## GGGTCAGTGT
  switch fluorescence ratio: 0.952 ± 0.018

## GGGTCATGAT
  switch fluorescence ratio: 1.01 ± 0.021

## GGGTCCTGGC
  switch fluorescence ratio: 0.985 ± 0.037

## GGGTCCTTTT
  switch fluorescence ratio: 1 ± 0.021

## GGGTCGAGGG
  switch fluorescence ratio: 0.986 ± 0.027

## GGGTCGCGCC
  switch fluorescence ratio: 1.01 ± 0.046

## GGGTCGCGGG
  switch fluorescence ratio: 0.9946 ± 0.0024

## GGGTCGGCAC
  switch fluorescence ratio: 0.968 ± 0.035

## GGGTCGGGTG
  switch fluorescence ratio: 1.03 ± 0.042

## GGGTCGTAGC
  switch fluorescence ratio: 1.01 ± 0.037

## GGGTCTACA
  switch fluorescence ratio: 0.9714 ± 0.0025

## GGGTCTCATT
  switch fluorescence ratio: 0.981 ± 0.022

## GGGTCTGTGG
  switch fluorescence ratio: 0.9812 ± 0.0062

## GGGTCTTGAC
  switch fluorescence ratio: 0.9858 ± 0.0045

## GGGTCTTGAT
  switch fluorescence ratio: 0.9675 ± 0.0047

## GGGTCTTTGA
  switch fluorescence ratio: 1.03 ± 0.041

## GGGTGAAGGA
  switch fluorescence ratio: 0.989 ± 0.042

## GGGTGACCAC
  switch fluorescence ratio: 0.986 ± 0.0044

## GGGTGACTTA
  switch fluorescence ratio: 0.978 ± 0.04

## GGGTGAGATT
  switch fluorescence ratio: 1.02 ± 0.015

## GGGTGAGTCG
  switch fluorescence ratio: 1.02 ± 0.037

## GGGTGAGTGG
  switch fluorescence ratio: 1.01 ± 0.021

## GGGTGATAGA
  switch fluorescence ratio: 1.01 ± 0.039

## GGGTGCACAC
  switch fluorescence ratio: 1.09 ± 0.095

## GGGTGCAGGG
  switch fluorescence ratio: 0.9932 ± 0.0059

## GGGTGCATCG
  switch fluorescence ratio: 1.004 ± 0.0046

## GGGTGCATTG
  switch fluorescence ratio: 1.03 ± 0.021

## GGGTGCGCGA
  switch fluorescence ratio: 1.04 ± 0.041

## GGGTGCGGCA
  switch fluorescence ratio: 0.998 ± 0.019

## GGGTGCGGTT
  switch fluorescence ratio: 1.011 ± 0.01

## GGGTGCTCGG
  switch fluorescence ratio: 1 ± 0.019

## GGGTGCTGCG
  switch fluorescence ratio: 1.01 ± 0.037

## GGGTGCTGTT
  switch fluorescence ratio: 1.02 ± 0.036

## GGGTGGCAGG
  switch fluorescence ratio: 1.01 ± 0.013

## GGGTGGCCAA
  switch fluorescence ratio: 0.981 ± 0.012

## GGGTGGGCCC
  switch fluorescence ratio: 0.995 ± 0.041

## GGGTGGGCCT
  switch fluorescence ratio: 0.989 ± 0.042

## GGGTGGGGGA
  switch fluorescence ratio: 1.03 ± 0.028

## GGGTGGGGTG
  switch fluorescence ratio: 1 ± 0.018

## GGGTGGGTAT
  switch fluorescence ratio: 1 ± 0.027

## GGGTGGTCGG
  switch fluorescence ratio: 0.978 ± 0.032

## GGGTGTAGGA
  switch fluorescence ratio: 1.03 ± 0.065

## GGGTGTATTG
  switch fluorescence ratio: 1.01 ± 0.044

## GGGTGTGAGA
  switch fluorescence ratio: 1.04 ± 0.03

## GGGTGTTGTA
  switch fluorescence ratio: 1 ± 0.055

## GGGTTAAAGT
  switch fluorescence ratio: 0.994 ± 0.022

## GGGTTAAATG
  switch fluorescence ratio: 0.989 ± 0.028

## GGGTTAAGAG
  switch fluorescence ratio: 1.01 ± 0.02

## GGGTTAATGA
  switch fluorescence ratio: 1 ± 0.048

## GGGTTAATGT
  switch fluorescence ratio: 1.01 ± 0.061

## GGGTTACTGG
  switch fluorescence ratio: 1.002 ± 0.0021

## GGGTTAGACG
  switch fluorescence ratio: 1.01 ± 0.011

## GGGTTAGAGT
  switch fluorescence ratio: 0.993 ± 0.025

## GGGTTAGATT
  switch fluorescence ratio: 0.993 ± 0.06

## GGGTTATAGT
  switch fluorescence ratio: 1.01 ± 0.017

## GGGTTATCAC
  switch fluorescence ratio: 0.984 ± 0.0095

## GGGTTATGAG
  switch fluorescence ratio: 0.977 ± 0.06

## GGGTTATGGG
  switch fluorescence ratio: 1.005 ± 0.008

## GGGTTATTGT
  switch fluorescence ratio: 1 ± 0.016

## GGGTTCAAAC
  switch fluorescence ratio: 1 ± 0.039

## GGGTTCAATC
  switch fluorescence ratio: 1.04 ± 0.014

## GGGTTCAGGC
  switch fluorescence ratio: 1.05 ± 0.059

## GGGTTCCGGG
  switch fluorescence ratio: 1.02 ± 0.021

## GGGTTCGTTC
  switch fluorescence ratio: 0.989 ± 0.054

## GGGTTCTAGG
  switch fluorescence ratio: 0.999 ± 0.043

## GGGTTGAAGA
  switch fluorescence ratio: 0.971 ± 0.04

## GGGTTGAATA
  switch fluorescence ratio: 0.953 ± 0.056

## GGGTTGCCAG
  switch fluorescence ratio: 0.997 ± 0.025

## GGGTTGCCGT
  switch fluorescence ratio: 0.977 ± 0.036

## GGGTTGGAAG
  switch fluorescence ratio: 1.02 ± 0.067

## GGGTTGGATT
  switch fluorescence ratio: 0.991 ± 0.023

## GGGTTGGCTC
  switch fluorescence ratio: 0.994 ± 0.041

## GGGTTGGGAC
  switch fluorescence ratio: 1.01 ± 0.051

## GGGTTGGGTG
  switch fluorescence ratio: 1.01 ± 0.042

## GGGTTGGTGT
  switch fluorescence ratio: 0.978 ± 0.015

## GGGTTGGTTG
  switch fluorescence ratio: 0.9929 ± 0.0052

## GGGTTGTGCT
  switch fluorescence ratio: 0.953 ± 0.015

## GGGTTGTTTG
  switch fluorescence ratio: 0.992 ± 0.036

## GGGTTTAAGG
  switch fluorescence ratio: 1.02 ± 0.015

## GGGTTTACAA
  switch fluorescence ratio: 0.989 ± 0.029

## GGGTTTACGG
  switch fluorescence ratio: 1.02 ± 0.017

## GGGTTTACTT
  switch fluorescence ratio: 0.99844 ± 0.00094

## GGGTTTATGT
  switch fluorescence ratio: 0.984 ± 0.029

## GGGTTTATTG
  switch fluorescence ratio: 0.998 ± 0.049

## GGGTTTCGAC
  switch fluorescence ratio: 1.02 ± 0.013

## GGGTTTCGCG
  switch fluorescence ratio: 1.01 ± 0.023

## GGGTTTCGGG
  switch fluorescence ratio: 0.9779 ± 0.0092

## GGGTTTGAAA
  switch fluorescence ratio: 1.01 ± 0.067

## GGGTTTGGGC
  switch fluorescence ratio: 1.01 ± 0.024

## GGGTTTGTGG
  switch fluorescence ratio: 0.984 ± 0.023

## GGGTTTTCCA
  switch fluorescence ratio: 1.01 ± 0.021

## GGGTTTTGGC
  switch fluorescence ratio: 1 ± 0.066

## GGGTTTTTAT
  switch fluorescence ratio: 0.989 ± 0.027

## GGGTTTTTGC
  switch fluorescence ratio: 1.04 ± 0.045

## GGGTTTTTTA
  switch fluorescence ratio: 0.988 ± 0.022

## GGGTTTTTTC
  switch fluorescence ratio: 0.9798 ± 0.0046

## GGTAAACAAA
  switch fluorescence ratio: 1.026 ± 0.0079

## GGTAAATTGA
  switch fluorescence ratio: 1.04 ± 0.03

## GGTAACATCG
  switch fluorescence ratio: 1.003 ± 0.0066

## GGTAACGTGA
  switch fluorescence ratio: 1.01 ± 0.023

## GGTAAGTCTA
  switch fluorescence ratio: 0.9832 ± 0.0059

## GGTAATATAC
  switch fluorescence ratio: 1.057 ± 0.0076

## GGTAATGCGG
  switch fluorescence ratio: 1.01 ± 0.041

## GGTAATTTTG
  switch fluorescence ratio: 0.996 ± 0.061

## GGTACAAGAT
  switch fluorescence ratio: 1.03 ± 0.013

## GGTACACACA
  switch fluorescence ratio: 1.26 ± 0.061

## GGTACCAAAA
  switch fluorescence ratio: 0.992 ± 0.024

## GGTACGCG
  switch fluorescence ratio: 0.982 ± 0.027

## GGTACGGAGA
  switch fluorescence ratio: 1.02 ± 0.011

## GGTACGGTTT
  switch fluorescence ratio: 1.04 ± 0.02

## GGTACTAATA
  switch fluorescence ratio: 1.023 ± 0.007

## GGTACTACCG
  switch fluorescence ratio: 1.03 ± 0.044

## GGTACTCATT
  switch fluorescence ratio: 0.994 ± 0.034

## GGTACTGGGG
  switch fluorescence ratio: 1.06 ± 0.015

## GGTACTTCTA
  switch fluorescence ratio: 1.01 ± 0.018

## GGTACTTGTA
  switch fluorescence ratio: 1 ± 0.016

## GGTAGAAACT
  switch fluorescence ratio: 1.04 ± 0.014

## GGTAGACCGC
  switch fluorescence ratio: 0.987 ± 0.053

## GGTAGAGTAA
  switch fluorescence ratio: 1 ± 0.033

## GGTAGATAGT
  switch fluorescence ratio: 0.979 ± 0.029

## GGTAGCAGTT
  switch fluorescence ratio: 1 ± 0.026

## GGTAGCCGGT
  switch fluorescence ratio: 1.01 ± 0.041

## GGTAGCGTCT
  switch fluorescence ratio: 1.06 ± 0.09

## GGTAGGACTC
  switch fluorescence ratio: 1 ± 0.026

## GGTAGGATAG
  switch fluorescence ratio: 0.9728 ± 0.0016

## GGTAGGGAAC
  switch fluorescence ratio: 0.975 ± 0.029

## GGTAGGGAAT
  switch fluorescence ratio: 0.974 ± 0.029

## GGTAGGGCGG
  switch fluorescence ratio: 1.01 ± 0.068

## GGTAGGGGGA
  switch fluorescence ratio: 1.02 ± 0.046

## GGTATAAATG
  switch fluorescence ratio: 1 ± 0.019

## GGTATAAGGT
  switch fluorescence ratio: 1.006 ± 0.01

## GGTATACGCA
  switch fluorescence ratio: 1.14 ± 0.028

## GGTATAGAGC
  switch fluorescence ratio: 1.02 ± 0.05

## GGTATAGCAC
  switch fluorescence ratio: 1.07 ± 0.016

## GGTATAGCGC
  switch fluorescence ratio: 1.01 ± 0.051

## GGTATAGGAT
  switch fluorescence ratio: 0.991 ± 0.025

## GGTATAGTAG
  switch fluorescence ratio: 0.99304 ± 0.00031

## GGTATAGTTA
  switch fluorescence ratio: 1.02 ± 0.037

## GGTATATAGG
  switch fluorescence ratio: 1.01 ± 0.027

## GGTATCCGGC
  switch fluorescence ratio: 1.03 ± 0.088

## GGTATCGGAA
  switch fluorescence ratio: 0.984 ± 0.055

## GGTATCTAGT
  switch fluorescence ratio: 1.02 ± 0.032

## GGTATCTGTT
  switch fluorescence ratio: 0.986 ± 0.016

## GGTATGAGTG
  switch fluorescence ratio: 0.9737 ± 0.006

## GGTATGTGTG
  switch fluorescence ratio: 1.03 ± 0.024

## GGTATTAGCT
  switch fluorescence ratio: 1.01 ± 0.013

## GGTATTAGGT
  switch fluorescence ratio: 1.01 ± 0.011

## GGTATTCGGT
  switch fluorescence ratio: 0.971 ± 0.04
